Laboratory results: article doi:10.1101/091884 (bioRxiv, 2016)

Assays:
Experiment in all cases: SEC + other: SDS-PAGE
[1] = biological target: B. amyloliquefaciens BslA_(42-181) (Bacillus amyloliquefaciens FZB42)
[2] = biological target: B. licheniformis BslA_(40-17g) (Bacillus licheniformis DSM13)
[3] = biological target: B. pumilus BslA_(37-177) (Bacillus pumilus SAFR-032)
SEC + other: SDS-PAGE = biological target: the molecule itself

With “B. amyloliquefaciens BslA_(42-181) (domain or fragment)” the stoichiometry N [1] was 2.

Work on “B. licheniformis BslA_(40-17g) (domain or fragment)” yielded a stoichiometry N [2] of 2.

For “B. pumilus BslA_(37-177) (domain or fragment)”, the stoichiometry N [3] was 2.

B1: B. subtilis BslA_(42-181) (domain or fragment, Bacillus subtilis, UniProt P71014 42-181, looked up)
chain: MRTQSTASLFATITGASKTEWSFSDIELTYRPNTLLSLGVMEFTLPSGFTANTKDTLNGNALRTTQILNNGKTVRVPLALDLLGAGEFKLKLNNKTLPAAGTYTFRAENKSLSIGNKFYAEASIDVAKRSTPPTQPCGCN
B1 was tested, and the “stoichiometry N” value (SEC + other: SDS-PAGE) was 2.
